Results taken from article PMC12416549 (2024).
Substitutions are numbered along the chain they refer to. Names may count otherwise. Values belong to the binder of their own block, whether it stands above or below them.

Target: T1, TNFR1 (Homo sapiens, UniProt P19438)
T1 chain: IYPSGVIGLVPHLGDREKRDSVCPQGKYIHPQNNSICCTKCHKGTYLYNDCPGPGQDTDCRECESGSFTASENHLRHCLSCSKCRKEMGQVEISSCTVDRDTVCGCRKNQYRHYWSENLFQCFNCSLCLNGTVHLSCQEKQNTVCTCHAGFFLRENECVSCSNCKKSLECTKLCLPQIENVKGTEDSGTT
Experiment: yeast display SC50

B1: A9Q (designed binder)
chain: SMEEEVEKQAKEYEKKKKEAIEKHLEKLKAKDKEAAERFLKELEEAAKEYAKDEAKTMSEEEAKRRAKKYKEKVLLSELSEEEQKEIKEAEEKLVRTILKYVEEAAK
apparent Kd (screen): 0.446 nM

B2: K27I (designed binder)
chain: B1 chain with Q9A, K27I
apparent Kd (screen): 1.05 nM

B3: L99W (designed binder)
chain: B1 chain with Q9A, L99W
apparent Kd (screen): 11.4 nM

B4: I87K (designed binder)
chain: B1 chain with Q9A, I87K
apparent Kd (screen): 9.41 nM

B6: A46F (designed binder)
chain: B1 chain with Q9A, A46F
apparent Kd (screen): 16.7 nM

B8: K68V (designed binder)
chain: B1 chain with Q9A, K68V
apparent Kd (screen): 1.27 nM

B9: Q84K (designed binder)
chain: B1 chain with Q9A, Q84K
apparent Kd (screen): 7.07 nM

B12: A106H (designed binder)
chain: B1 chain with Q9A, A106H
apparent Kd (screen): 1.54 nM

B13: A46D (designed binder)
chain: B1 chain with Q9A, A46D
apparent Kd (screen): 2.73 nM

B15: Y70N (designed binder)
chain: B1 chain with Q9A, Y70N
apparent Kd (screen): 8.56 nM

B16: K56D (designed binder)
chain: B1 chain with Q9A, K56D
apparent Kd (screen): 7.78 nM

B17: K64F (designed binder)
chain: B1 chain with Q9A, K64F
apparent Kd (screen): 0.49 nM

B18: K64D (designed binder)
chain: B1 chain with Q9A, K64D
apparent Kd (screen): 1.05 nM

B20: E81G (designed binder)
chain: B1 chain with Q9A, E81G
apparent Kd (screen): 1.16 nM

B22: K15F (designed binder)
chain: B1 chain with Q9A, K15F
apparent Kd (screen): 0.446 nM

B24: E89F (designed binder)
chain: B1 chain with Q9A, E89F
apparent Kd (screen): 1.86 nM

B27: K69V (designed binder)
chain: B1 chain with Q9A, K69V
apparent Kd (screen): 0.49 nM

B28: E104H (designed binder)
chain: B1 chain with Q9A, E104H
apparent Kd (screen): 0.446 nM

B29: A20R (designed binder)
chain: B1 chain with Q9A, A20R
apparent Kd (screen): 0.446 nM

B31: S59E (designed binder)
chain: B1 chain with Q9A, S59E
apparent Kd (screen): 0.956 nM

B33: K31S (designed binder)
chain: B1 chain with Q9A, K31S
apparent Kd (screen): 0.956 nM

B35: K23F (designed binder)
chain: B1 chain with Q9A, K23F
apparent Kd (screen): 0.79 nM

B36: K17E (designed binder)
chain: B1 chain with Q9A, K17E
apparent Kd (screen): 1.05 nM

B39: E7H (designed binder)
chain: B1 chain with E7H, Q9A
apparent Kd (screen): 4.39 nM

B40: E81T (designed binder)
chain: B1 chain with Q9A, E81T
apparent Kd (screen): 0.718 nM

B41: Y70W (designed binder)
chain: B1 chain with Q9A, Y70W
apparent Kd (screen): 8.56 nM

B42: Y50H (designed binder)
chain: B1 chain with Q9A, Y50H
apparent Kd (screen): 13.8 nM

The next lines start with the values.

apparent Kd (screen): 10.4 nM
B5: L40P (designed binder)
chain: B1 chain with Q9A, L40P

apparent Kd (screen): 0.49 nM
B7: E81N (designed binder)
chain: B1 chain with Q9A, E81N

apparent Kd (screen): 11.4 nM
B10: L99D (designed binder)
chain: B1 chain with Q9A, L99D

apparent Kd (screen): 0.539 nM
B11: K15M (designed binder)
chain: B1 chain with Q9A, K15M

apparent Kd (screen): 0.653 nM
B14: A35V (designed binder)
chain: B1 chain with Q9A, A35V

apparent Kd (screen): 0.446 nM
B19: K88T (designed binder)
chain: B1 chain with Q9A, K88T

apparent Kd (screen): 0.49 nM
B21: A51K (designed binder)
chain: B1 chain with Q9A, A51K

apparent Kd (screen): 7.07 nM
B23: E72R (designed binder)
chain: B1 chain with Q9A, E72R

apparent Kd (screen): 0.49 nM
B25: K33F (designed binder)
chain: B1 chain with Q9A, K33F

apparent Kd (screen): 0.593 nM
B26: E81K (designed binder)
chain: B1 chain with Q9A, E81K

apparent Kd (screen): 0.368 nM
B30: E42K (designed binder)
chain: B1 chain with Q9A, E42K

apparent Kd (screen): 10.4 nM
B32: A55T (designed binder)
chain: B1 chain with Q9A, A55T

apparent Kd (screen): 0.49 nM
B34: E37K (designed binder)
chain: B1 chain with Q9A, E37K

apparent Kd (screen): 2.05 nM
B37: K107V (designed binder)
chain: B1 chain with Q9A, K107V

apparent Kd (screen): 0.446 nM
B38: K88M (designed binder)
chain: B1 chain with Q9A, K88M

apparent Kd (screen): 12.5 nM
B43: D53G (designed binder)
chain: B1 chain with Q9A, D53G
